The term EC50 denotes the concentration that produces a half-maximal response. The low end stands for a more potent agent, the high end for a less potent agent.

The target of experiment [1] is T1, Macaca mulatta TF on RF/6A cells (Macaca mulatta (protein sequence stated …, UniProt P13726 33-294 (human entry))).
T1 construct: Endogenous TF of the RF/6A cell line; also called TF-positive Macaca mulatta RF/6A cells; cynomolgus TF
T1 chain: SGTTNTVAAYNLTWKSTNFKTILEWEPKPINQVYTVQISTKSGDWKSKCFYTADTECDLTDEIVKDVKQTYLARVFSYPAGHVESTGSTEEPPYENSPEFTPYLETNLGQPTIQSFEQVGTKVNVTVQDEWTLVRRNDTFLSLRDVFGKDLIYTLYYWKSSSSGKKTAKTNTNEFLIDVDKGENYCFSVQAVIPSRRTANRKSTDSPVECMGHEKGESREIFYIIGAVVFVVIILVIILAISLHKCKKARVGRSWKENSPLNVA
The experiment can be described thus: flow cytometry, IgG1 titrated on TF-positive Macaca mulatta RF/6A cells, 4-parameter fit.
Experimental: After 2 washes, dead cells were labeled with TO-PRO-3 Iodide (ThermoFisher Scientific) and samples were analyzed on a CytoFLEX flow cytometer (Beckman Coulter, Brea, CA, USA) or Novocyte flow cytometer (ACEA Biosciences, San Diego, CA, USA). The median fluorescence intensities (MFIs) at each dilution were plotted and cell EC₅₀'s were derived using a 4-parameter binding model in Prism (GraphPad, La Jolla, CA, USA).

In the next experiment the target is T2, E. coli-derived TF (human (Example 17 does not restate the …, UniProt P13726 33-251)).
T2 construct: also called E. coli-derived TF-His; E. coli-derived TF protein
In words: protein ELISA, plate coated with E. coli-derived TF-His, antibody titrated, HRP secondary, luminescence. For orientation: An ELISA detects its analyte on a solid surface through an enzyme-linked reagent.

The next experiment has as its target T3, Expi293-derived TF-His (human (Example 17 does not restate the …, UniProt P13726 33-251)).
T3 construct: Glycosylated TF ECD-His6 from Expi293 cells; also called Expi293-derived TF protein; TF ECD-His6
In words: protein ELISA, plate coated with Expi293-derived TF-His, antibody titrated, HRP secondary, luminescence; Expi293-derived TF, not E. coli-derived.

The target in a further experiment is T4, h108-219_r (human/rat chimera).
T4 chain: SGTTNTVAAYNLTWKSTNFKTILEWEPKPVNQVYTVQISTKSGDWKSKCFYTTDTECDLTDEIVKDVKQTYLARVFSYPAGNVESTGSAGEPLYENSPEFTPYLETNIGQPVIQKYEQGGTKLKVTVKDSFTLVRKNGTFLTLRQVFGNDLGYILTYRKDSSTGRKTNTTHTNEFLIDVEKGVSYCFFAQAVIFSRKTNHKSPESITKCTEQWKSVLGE
The experiment can be described thus: live cell staining, flow cytometry, transfected HEK293. Background: Flow cytometry measures light scatter and fluorescence of single cells or particles in a stream.

In experiment [2] the target is T5, rTF (rat TF) (rat, UniProt P42533 29-252). Described as above.
Experimental: (§1) To establish binding of the anti-human TF antibodies to the various TF constructs, HEK293 cells were transfected with a DNA plasmid that co-expresses the TF construct and a green fluorescent protein marker. […] Upon acquisition of 80,000 live events on a flow cytometer, live cells marked with the fluorescent marker were analyzed for the degree of staining by the anti-TF antibody.
A further experiment addresses T6, h1-107_r (human/rat chimera).
T6 chain: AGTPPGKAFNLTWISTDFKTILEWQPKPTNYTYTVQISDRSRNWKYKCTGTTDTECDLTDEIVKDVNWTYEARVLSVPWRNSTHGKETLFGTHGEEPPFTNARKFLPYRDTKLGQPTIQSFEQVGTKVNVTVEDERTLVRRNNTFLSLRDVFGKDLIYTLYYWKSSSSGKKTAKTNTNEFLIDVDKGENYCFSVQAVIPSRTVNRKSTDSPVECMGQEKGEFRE
Described as above.

A further experiment addresses T7, h1-77_r (human/rat chimera).
T7 construct: Human TF ECD with residues 1-77 replaced by rat segment
The experiment is described as above.

For the next experiment, the target named is h159-219_r (human/rat chimera). Described as above.
Experiment [3] addresses T8, hTF (human Tissue Factor construct) (human, UniProt P13726 33-251).
T8 construct: also called human TF
The experiment is described as above.
Experimental: as §1

Experiment [4] concerns the target T5, rTF (rat TF). Described as above. This is another data set of the same source.
Experimental: as §1
A further experiment deals with r141-194_h (rat/human chimera, UniProt P42533 29-252). The description is as above.
Another experiment deals with T9, hTF_N171H_T197K (human, UniProt P13726 33-251).
T9 chain: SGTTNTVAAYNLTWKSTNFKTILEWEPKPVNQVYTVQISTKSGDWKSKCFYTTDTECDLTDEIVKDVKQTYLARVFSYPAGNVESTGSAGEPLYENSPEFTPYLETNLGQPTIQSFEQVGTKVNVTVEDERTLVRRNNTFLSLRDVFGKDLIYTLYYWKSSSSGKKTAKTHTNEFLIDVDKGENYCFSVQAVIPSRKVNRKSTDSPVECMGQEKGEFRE
The experiment is described as above.

Like-named read-outs stand apart in the source and are kept apart here.

Experimental for E. coli-derived TF: (§2) Plates coated with Expi293- or E. coli-derived TF-His were incubated with increasing concentrations of antibodies.
Experimental for Expi293-derived TF-His: as §2
Experimental for h1-107_r: as §1
Experimental for h1-77_r: as §1
Experimental for h108-219_r: as §1
Experimental for h159-219_r: as §1
Experimental for hTF_N171H_T197K: as §1
Experimental for r141-194_h: as §1

B1: 1F (antibody, human IgG1, V domains shown)
VH: EVQLLESGGGLVQPGGSLRLSCAASGFTFSDYAMGWVRQAPGKGLEWVSTISGSGGLTYYADSVKGRFTISRDNSKNTLYLQMNSLRAEDTAVYYCAKAPYGYYMDVWGKGTTVTVSS
VL: not shown
notes: Human IgG1; also called antibody designated 1F
As to B1, the EC50 is 0.17 nM in [1], 0.32 nM with E. coli-derived TF and 0.41 nM in the experiment with Expi293-derived TF-His.

B2: 5G9 (humanized TF8-5G9, CNTO 860) (antibody, V domains shown)
VH: QVQLVESGGGVVQPGRSLRLSCKASGFNIKDYYMHWVRQAPGKGLEWIGLIDPENGNTIYDPKFQGRFTISADNSKNTLFLQMDSLRPEDTAVYYCARDNSYYFDYWGQGTPVTVSS
VL: DIQMTQSPSSLSASVGDRVTITCKASQDIRKYLNWYQQKPGKAPKLLIYYATSLADGVPSRFSGSGSGTDYTFTISSLQPEDIATYYCLQHGESPYTFGQGTKLEIT
notes: Previously described anti-TF antibody; detected with anti-human IgG-Fc; also called h5G9
As for B2, the “percent antibody binding to TF construct relative to hTF” value with h108-219_r came to 0%.

B3: 39A (antibody, V domains shown)
VH: QVQLVQSGAEVKKPGSSVKVSCKASGGTFSSNAIGWVRQAPGQGLEWMGSIIPIIGFANYAQKFQGRVTITADESTSTAYMELSSLRSEDTAVYYCARDSGYYYGASSFGMDVWGQGTTVTVSS
VL: EIVMTQSPATLSVSPGERATLSCRASQSVSSNLAWYQQKPGQAPRLLIYGASTRATGIPARFSGSGSGTEFTLTISSLQSEDFAVYYCEQYNNLPLTFGGGTKVEIK
notes: Human IgG (detected with anti-human IgG-Fc)
With B3, the “percent antibody binding to TF construct relative to hTF” value in the experiment with rTF (rat TF) [2] is 0%; with h1-107_r, 0%; with h1-77_r, 0%; in the experiment with h159-219_r, 141%; in [3], 100%; in the experiment with rTF (rat TF) [4], 0%. Besides, the figures for the “percent antibody binding to TF construct relative to hTF” value with r141-194_h and with hTF_N171H_T197K were 0% and 94%, respectively.

The values are drawn from patent US20250361322A1 (ICONIC THERAPEUTICS, published 2025).
